Laboratory results from article PMC7390872.

Biological target: recombinant thioredoxin (rTRX) [thioredoxin: P0AA25]
Assay: SPR; BIAcore T200; anti-His-tag antibody amine-coupled to a CM5 chip captures the His-tagged recombinant protein (0.1 mg/mL, about 200 RU); ligands (0.1 mg/mL) injected at 10 μL/min for 180 s; HBS-EP pH 7.5 (10 mM HEPES, 150 mM NaCl, 3 mM EDTA, 0.005% P20); relative reaction value, RUs >10 considered positive

Sequence of recombinant thioredoxin (rTRX) [thioredoxin: P0AA25] (P0AA25 whole entry): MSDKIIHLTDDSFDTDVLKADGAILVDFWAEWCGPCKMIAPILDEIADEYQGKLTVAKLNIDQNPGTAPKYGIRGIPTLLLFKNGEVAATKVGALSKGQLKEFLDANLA

laminin protein showed a response units (relative reaction value) of less than 10 RUs.
